Reference: US10464978B2, “Peptides and combination of peptides for use in immunotherapy against ovarian cancer and other cancers” (immatics biotechnologies GmbH, priority 2015, dated 2019)

target: HLA-A*02:01 (Homo sapiens, UniProt P04439, D140Y/D185E/D98H/E176V/E277Q/G131W/G231S/I119V/I121R/I166T/I218V/L300P/L318F/N151K/N90K/P208A/P217A/Q86G/Q94H/R138H/R169H/T345S); test: MHC binding assay: UV-ligand exchange with beta2m ELISA (peptide exchange yield); conditions: binding to HLA-A*02:01
In short: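 Peptide-MHC complexes formed by UV-ligand exchange, a UV-cleavable peptide being replaced by the candidate peptide. Exchange products diluted 100-fold, captured on streptavidin-coated plates for 1h at 37° C, then detected with 2 ug/ml HRP anti-β2m (1h, 37° C) and TMB, absorbance 450 nm; value is exchange yield.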

Substance	Peptide exchange (MHC class I binding score, peptide exchange yield)
146 (SLATAGDGLIEL; listed as Homo sapiens) [compound 146]	“++” (≥20% = ++)
319 (SLEPQIQPV; listed as Homo sapiens) [compound 319]	“++” (≥20% = ++)
389 (LLADVTHLL; listed as Homo sapiens) [compound 389]	“++” (≥20% = ++)
242 (AIAYILQGV; listed as Homo sapiens) [compound 242]	“++” (≥20% = ++)
553 (SLLNQDLHWSL; listed as Homo sapiens) [compound 553]	“++++” (≥75% = ++++)
469 (YLASDEITTV; listed as Homo sapiens) [compound 469]	“+++” (≥50 = +++)
38 (FLLEDDIHVS; listed as Homo sapiens) [compound 38]	“+++” (≥50 = +++)
200 (LLFGSVQEV; listed as Homo sapiens) [compound 200]	“+++” (≥50 = +++)
186 (TLFFQQNAL; listed as Homo sapiens) [compound 186]	“++” (≥20% = ++)
62 (VLLDVSAGQLLM; listed as Homo sapiens) [compound 62]	“++++” (≥75% = ++++)
12 (SLWPDPMEV; listed as Homo sapiens) [compound 12]	“+++” (≥50 = +++)
315 (YLQDVVEQA; listed as Homo sapiens) [compound 315]	“+++” (≥50 = +++)
394 (LLAVIGGLVYL; listed as Homo sapiens) [compound 394]	“+++” (≥50 = +++)
6 (VLVSDGVHSV; listed as Homo sapiens) [compound 6]	“+++” (≥50 = +++)
11 (KIFEMLEGV; listed as Homo sapiens) [compound 11]	“+++” (≥50 = +++)
441 (ALLENPKMEL; listed as Homo sapiens) [compound 441]	“+++” (≥50 = +++)
256 (FLPPEHTIVYI; listed as Homo sapiens) [compound 256]	“+++” (≥50 = +++)
228 (AMQEYIAVV; listed as Homo sapiens) [compound 228]	“++” (≥20% = ++)
36 (YVLEDLEVTV; listed as Homo sapiens) [compound 36]	“++” (≥20% = ++)
8 (FTLGNVVGMYL; listed as Homo sapiens) [compound 8]	“++++” (≥75% = ++++)
456 (LLIGHLERV; listed as Homo sapiens) [compound 456]	“+++” (≥50 = +++)
452 (ILLEHGADPNL; listed as Homo sapiens) [compound 452]	“+++” (≥50 = +++)
587 (VMNDRLYAI; listed as Homo sapiens) [compound 587]	“+++” (≥50 = +++)
152 (ILFEDIFDV; listed as Homo sapiens) [compound 152]	“+++” (≥50 = +++)
180 (FQIDPHSGLVTV; listed as Homo sapiens) [compound 180]	“++” (≥20% = ++)
199 (ALQDVPLSSV; listed as Homo sapiens) [compound 199]	“+++” (≥50 = +++)
299 (YLLETSGNL; listed as Homo sapiens) [compound 299]	“+++” (≥50 = +++)
343 (SLLEVNEESTV; listed as Homo sapiens) [compound 343]	“+++” (≥50 = +++)
